{
  "source": "paper PMC4297519",
  "about": "(Nature, 2014)",
  "biological_target": "the molecule itself",
  "test": "crystal structure",
  "data": [
    {"protein": "human CEACAM1 IgV domain (GST tag removed) (domain or fragment) QLTTESMPFNVAEGKEVLLLVHNLPQQLFGYSWYKGERVDGNRQIVGYAIGTQQATPGPANSGRETIYPNASLLIQNVTQNDTGFYTLQVIKSDLVNEEATGQFHVY", "values": [
      {"measurement": "binding result", "result": "binds"}
    ]}
  ]
}
